Results taken from patent US20250352661A1 (MYTHIC THERAPEUTICS, published 2025).
Numbering of substitutions follows the chain as printed. In names and notes the source's numbering stands.

Columns and labels:
[1] = molecular target: T1, Human LRRC15 Protein, His Tag, Acro Biosystems (human, UniProt Q8TF66 22-538, limits assumed); test: BLI; dissociation pH 7.4 black, pH 5.4 grey [D00028 FIG. 7B]
T1 construct: not shown: His tag
T1 sequence (looked up): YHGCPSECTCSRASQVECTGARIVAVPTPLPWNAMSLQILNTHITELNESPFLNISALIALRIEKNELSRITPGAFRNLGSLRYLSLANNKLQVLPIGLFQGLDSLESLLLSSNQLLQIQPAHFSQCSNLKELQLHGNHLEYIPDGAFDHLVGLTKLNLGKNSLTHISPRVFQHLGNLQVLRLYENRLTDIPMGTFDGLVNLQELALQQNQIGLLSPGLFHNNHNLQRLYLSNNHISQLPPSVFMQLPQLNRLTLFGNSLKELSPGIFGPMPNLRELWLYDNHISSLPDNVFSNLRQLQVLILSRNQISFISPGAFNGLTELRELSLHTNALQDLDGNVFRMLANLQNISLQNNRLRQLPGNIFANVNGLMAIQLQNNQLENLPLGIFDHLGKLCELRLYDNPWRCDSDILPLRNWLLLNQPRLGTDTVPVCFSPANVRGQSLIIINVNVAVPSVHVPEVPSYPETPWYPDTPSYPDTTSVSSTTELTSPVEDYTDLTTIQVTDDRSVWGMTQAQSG

[2] = molecular target: T2, Human LRRC15 Protein, His Tag (Acro Biosystems) (human, UniProt Q8TF66 22-538, limits assumed); test: BLI; dissociation pH 7.4 black, pH 5.4 grey [D00010 FIG. 1H]
T2 construct: Bought protein with His tag
T2 sequence (looked up): T1 sequence (looked up)
From the text: For each individual plot, antigen binding proteins were captured on anti-human Fc biosensors and associated with LRRC15 at pH 7.4. Dissociation was at pH 7.4 (black) or pH 5.4 (grey). Major X-axis ticks=100 seconds, with left dashed vertical line=0 seconds. Major Y-axis ticks=0.5 nm and octet plots are shown MYT5712 and MYT6080-MYT6121.
Multiple LRRC15-binding monoclonal antibodies have been described in the literature and can be used as a template for engineering pH-dependent binding. We selected discovery RabMAb clone 15G7 (rabbit VH SEQ ID NO: 378, rabbit VL SEQ ID NO: 451; humanized VH SEQ ID NO: 382, humanized VL SEQ ID NO: 455) as a LRRC15-binding monoclonal antibody for pH-engineering via histidine scanning. […] To generate pH-dependent sequence variants, individual amino acid residues within the heavy chain CDRs were systematically substituted with a histidine (or alanine if H was already present in a given position; e.g., MYT6099), one at a time (rabbit, MYT6080-6121). Desirable mutations were transferred to a humanized framework (humanized, MYT 8387-8411). After allowing for four days of protein expression, cell culture supernatants were collected, quantified by SDS-PAGE analysis, and the pH dependence of the variant was evaluated using biolayer interferometry (BLI) on an Octet RED 96e instrument. Briefly, cell culture supernatants were diluted based on qualitative expression level of the variant determined by visual examination of SDS-PAGE gels, 5 μL of cell culture supernatant was diluted into 195 μL of 1×PBST, pH 7.4 for high expressors, 25 μL of cell culture supernatant was diluted into 175 μL of 1×PBST, pH 7.4 for medium expressors and 100 μL of cell culture supernatant was diluted into 100 μL of 1×PBST, pH 7.4 for low expressors for loading onto the sensor tips.

[3] = molecular target: T3, Human LRRC15 Protein, His Tag (Acro Biosystems) (human, UniProt Q8TF66 22-538, limits assumed); test: BLI; dissociation pH 7.4 black, pH 5.4 grey [1/2); D00019 FIG. 4B (1/2]
T3 construct: not shown: His tag
T3 sequence (looked up): T1 sequence (looked up)
Protocol: Desirable mutations were transferred to a humanized framework (humanized, MYT 8387-8411). After allowing for four days of protein expression, cell culture supernatants were collected, quantified by SDS-PAGE analysis, and the pH dependence of the variant was evaluated using biolayer interferometry (BLI) on an Octet RED 96e instrument. Briefly, cell culture supernatants were diluted based on qualitative expression level of the variant determined by visual examination of SDS-PAGE gels, 5 μL of cell culture supernatant was diluted into 195 μL of 1×PBST, pH 7.4 for high expressors, 25 μL of cell culture supernatant was diluted into 175 μL of 1×PBST, pH 7.4 for medium expressors and 100 μL of cell culture supernatant was diluted into 100 μL of 1×PBST, pH 7.4 for low expressors for loading onto the sensor tips. The resulting diluted supernatants were then captured on an anti-human Fc sensor (Forte Bio). A baseline was established using 1×PBST (50 mM Potassium Phosphate Buffer+150 mM NaCl+0.05% Tween 20) pH 7.4, and the […] was associated with 50 nM of LRRC15 (Human LRRC15 Protein, His Tag, Acro Biosystems) in 1×PBST pH 7.4 for 120 sec to generate an association curve. In the dissociation phase, the antibody-antigen complex on the sensor was exposed to 1×PBST pH 7.4 or pH 5.4, for 300 sec. Association and dissociation phase curves were examined for the starting ABPC antibody (with no substitutions) and each corresponding antibody variant at pH 5.4 and pH 7.4 to inform on two criteria: a) enhanced dissociation (i.e., higher koff values) at pH 5.4 due to histidine substitution compared to the starting ABPC, (with no substitutions), and b) reduced dissociation at pH 7.4 (i.e., lower koff values) compared to pH 5.4 in the antibody variant itself and with the starting ABPC (with no substitutions).
The methods of Examples 9-10 were applied to RabMAb clone 29F1 (rabbit VH SEQ ID NO: 572 and VL SEQ ID NO: 578; and humanized VH SEQ ID NO: 576 and VL SEQ ID NO: 582).

B1: MYT9727 (antibody, V domains shown)
VH: EVQLVESGGGLVQPGGSLRLSCTASGFSFSSSHWICWVRQAPGKGLEWVGCIYAGSIGSTYYASWAKGRFTISRDTSKNTVYLQMNSLRAEDTAVYYCARAPNDIYNYYFNLWGQGTLVTVSS
VL: EIVMTQSPSTLSASVGDRVIITCEASENIYNYLAWYQQKPGKAPKLLIYYASTLASGVPSRFSGSGSGAEFTLTISSLQPDDFATYYCQSGYVSKSSTFGQGTKLTVL
notes: Humanized 29F1 with VL Q24E; captured by anti-human Fc sensor
B1: binds [1].

B2: MYT9728 (antibody, V domains shown)
VH: B1 VH
VL: B1 VL with E24Q, A25E
notes: also called hu29F1 VL A25E
B2: binds [1].

B3: MYT9729 (antibody, V domains shown)
VH: B1 VH
VL: B1 VL with E24Q, S26E
notes: also called hu29F1 VL S26E
B3: binds [1].

B4: MYT8433 (antibody, V domains shown)
VH: EVQLVESGGGLVQPGGSLRLSCTASGLDFRRTNYICWVRQAPGKGLEWVGCIYIADVVHYYASWAKGRFTFSRDTSKNTVYLQMNSLRAEDTAVYYCARGADGGFVYGMDLWGQGTLVTVSS
VL: EIVMTQSPSTLSASVGDRVIITCQASQSIHNYLSWYQQKPGKAPKRLIYSASTLPSGVPSRFSGSGSGAEFTLTISSLQPDDFATYYCQNNYHLAHYGHPFGQGTKLTVL
notes: hu15G7 VL G30H, W93H, G96H; human Fc
B4: binds [2].

B5: MYT8434 (antibody, V domains shown)
VH: B4 VH
VL: B4 VL with H30G, Y32H, Y92H, H96G
notes: hu15G7 VL Y32H, Y92H, W93H; human Fc
B5: no binding (tested: 50 nM LRRC15) [2].

B6: MYT8435 (antibody, V domains shown)
VH: B4 VH
VL: B4 VL with H30G, Y32H, Y92H, H93W
notes: hu15G7 VL Y32H, Y92H, G96H; human Fc
B6: no binding (tested: 50 nM LRRC15) [2].

B7: MYT8436 (antibody, V domains shown)
VH: B4 VH
VL: B4 VL with H30G, Y32H
notes: hu15G7 VL Y32H, W93H, G96H; human Fc
B7: no binding (tested: 50 nM LRRC15) [2].

B8: MYT8437 (antibody, V domains shown)
VH: B4 VH
VL: B4 VL with H30G, Y92H
notes: hu15G7 VL Y92H, W93H, G96H; human Fc
B8: no binding (tested: 50 nM LRRC15) [2].

B9: MYT9465 (antibody, V domains shown)
VH: B1 VH with F27D
VL: B1 VL with E24Q
notes: also called hu29F1 VH F27D
B9: binds [3].

B10: MYT9466 (antibody, V domains shown)
VH: B1 VH with S28D
VL: B1 VL with E24Q
notes: also called hu29F1 VH S28D
B10: binds [3].

B11: MYT9468 (antibody, V domains shown)
VH: B1 VH with S30D
VL: B1 VL with E24Q
notes: also called hu29F1 VH S30D
B11: binds [3].

B12: MYT9469 (antibody, V domains shown)
VH: B1 VH with S31D
VL: B1 VL with E24Q
notes: Humanized 29F1 VH aspartate variant; also called hu29F1 VH S31D
B12: binds [3].

B13: MYT9470 (antibody, V domains shown)
VH: B1 VH with S32D
VL: B1 VL with E24Q
notes: also called hu29F1 VH S32D
B13: binds [3].

B14: MYT9476 (antibody, V domains shown)
VH: B1 VH with I52D
VL: B1 VL with E24Q
notes: also called hu29F1 VH I52D
B14: binds [3].

B15: MYT9480 (antibody, V domains shown)
VH: B1 VH with S56D
VL: B1 VL with E24Q
notes: Humanized 29F1 VH aspartate variant; also called hu29F1 VH S56D
B15: binds [3].

B16: MYT9481 (antibody, V domains shown)
VH: B1 VH with I57D
VL: B1 VL with E24Q
notes: also called hu29F1 VH I57D
B16: binds [3].

B17: MYT9484 (antibody, V domains shown)
VH: B1 VH with T60D
VL: B1 VL with E24Q
notes: also called hu29F1 VH T60D
B17: binds [3].

B18: MYT9485 (antibody, V domains shown)
VH: B1 VH with Y61D
VL: B1 VL with E24Q
notes: also called hu29F1 VH Y61D
B18: binds [3].

B19: MYT9486 (antibody, V domains shown)
VH: B1 VH with Y62D
VL: B1 VL with E24Q
notes: also called hu29F1 VH Y62D
B19: binds [3].

B20: MYT9487 (antibody, V domains shown)
VH: B1 VH with A63D
VL: B1 VL with E24Q
notes: also called hu29F1 VH A63D
B20: binds [3].

B21: MYT9488 (antibody, V domains shown)
VH: B1 VH with S64D
VL: B1 VL with E24Q
notes: also called hu29F1 VH S64D
B21: binds [3].

B22: MYT9489 (antibody, V domains shown)
VH: B1 VH with W65D
VL: B1 VL with E24Q
notes: also called hu29F1 VH W65D
B22: binds [3].

B23: MYT9490 (antibody, V domains shown)
VH: B1 VH with A66D
VL: B1 VL with E24Q
notes: also called hu29F1 VH A66D
B23: binds [3].

B24: MYT9491 (antibody, V domains shown)
VH: B1 VH with K67D
VL: B1 VL with E24Q
notes: also called hu29F1 VH K67D
B24: binds [3].

B25: MYT9493 (antibody, V domains shown)
VH: B1 VH with A99D
VL: B1 VL with E24Q
notes: Humanized 29F1 VH aspartate variant; also called hu29F1 VH A99D
B25: binds [3].

B26: MYT9494 (antibody, V domains shown)
VH: B1 VH with R100D
VL: B1 VL with E24Q
notes: also called hu29F1 VH R100D
B26: binds [3].
